From patent US20070134720A1 (published 2007) come the findings set out here.

Experiment [1] concerns the target T1, GST-fused P4HA1 protein (whole region of P4HA1) (human, UniProt P13674 18-534).
T1 construct: Made in E. coli; also called GST-P4HA1; GST-fused P4HA1 protein beads; not shown: GST (glutathione S-transferase) fusion partner of vector pGEX 4T-1
Nature of the experiment: HTRF competition: 60 ng MBP-synoviolin-His and 10 ng GST-P4HA1, XL665-labeled anti-His and Eu(K)-labeled anti-GST antibodies. As for the experimental part:
A standard reaction mixture comprising 60 ng MBP-synoviolin-His, 10 ng GST-P4HA1, 1 mM DTT, 1 mM EDTA, 50 mM NaCl, 0.1% BSA, 0.3% DMSO, and a test compound in 15 μL of 50 mM HEPES (pH 7.5) solution was prepared using a 384-well plate. The reaction was initiated by adding 5 μL of a 50 mM HEPES solution comprising GST-P4HA1. After a 30 minute reaction at room temperature, 5 μL of a 50 mM HEPES solution comprising an Eu(K)-labeled anti-GST antibody (20000 B counts, CIS bio international), a XL665-labeled anti-His antibody (0.025 μg, CIS bio international), and 1 M K was added. The mixture was left to stand overnight at room temperature, and the fluorescence was measured using RUBYstar™.

Experiment [2] addresses T2, GST protein (UniProt P08515 1-218 = GST).
T2 construct: Control in the pulldown; also called control GST protein
In words: GST pulldown, SDS-PAGE and autoradiography. As for the experimental part:
A [³⁵S]-labeled Flag-P4HA1 fused protein was prepared using the TNT-coupled Translation System (Promega Corporation) and pcDNA3-Flag-P4HA1. The fused protein was added, together with GST-Syno dTM, GST-Syno RING and GST protein, to a binding buffer containing 20 mM HEPES (pH 7.9), 100 mM NaCl, 1 mM EDTA, 0.05% Tween, 5% glycerol, 1 mM DTT, 0.2 mM NaVO₄, 5 mM NaF, and 1 mM PMSF and reacted at 4° C. for 16 hours. The resulting reaction product was developed over SDS-PAGE and its radioactivity was detected with an image analyzer (BAS2000, Fujix). The binding of GST-Syno dTM and GST-Syno RING fusion protein with [³⁵S]-labeled pcDNA3-Flag-P4HA1 was observed. In contrast, no binding was found between the control GST protein and pcDNA3-Flag-P4HA1 (FIG. 2).

No end group written: not given here.

T2 sequence (P08515 whole entry): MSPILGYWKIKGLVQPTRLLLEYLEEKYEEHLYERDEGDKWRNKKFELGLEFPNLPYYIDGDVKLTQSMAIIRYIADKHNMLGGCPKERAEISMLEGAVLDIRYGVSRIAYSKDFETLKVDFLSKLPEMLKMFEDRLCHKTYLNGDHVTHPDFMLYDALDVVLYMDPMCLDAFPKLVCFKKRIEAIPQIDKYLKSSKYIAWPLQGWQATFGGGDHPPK

B1: partial peptide of the partially modified synoviolin (SEQ ID NO: 5) (peptide)
peptide: DNVCIICREEMVTGAKRLDCN
modifications: cysteine pairing not given here; also: partially modified, modification not given here
Broadly, the IC50 is the concentration that inhibits the measured activity by half. A higher IC50 goes with weaker potency. B1 gave an IC50 in experiment [1] of 167 µg/mL.

B2: [35S]-labeled Flag-P4HA1 fused protein (enzyme)
chain: HPGFFTSIGQMTDLIHTEKDLVTSLKDYIKAEEDKLEQIKKWAEKLDRLTSTATKDPEGFVGHPVNAFKLMKRLNTEWSELENLVLKDMSDGFISNLTIQRQYFPNDEDQVGAAKALLRLQDTYNLDTDTISKGNLPGVKHKSFLTAEDCFELGKVAYTEADYYHTELWMEQALRQLDEGEISTIDKVSVLDYLSYAVYQQGDLDKALLLTKKLLELDPEHQRANGNLKYFEYIMAKEKDVNKSASDDQSDQKTTPKKKGVAVDYLPERQKYEMLCRGEGIKMTPRRQKKLFCRYHDGNRNPKFILAPAKQEDEWDKPRIIRFHDIISDAEIEIVKDLAKPRLSRATVHDPETGKLTTAQYRVSKSAWLSGYENPVVSRINMRIQDLTGLDVSTAEELQVANYGVGGQYEPHFDFARKDEPDAFKELGTGNRIATWLFYMSDVSAGGATVFPEVGASVWPKKGTAVFWYNLFASGEGDYSTRHAACPVLVGNKWVSNKWLHERGQEFRRPCTLSELE
modifications: 35S label from in vitro translation (the FIG. 2 legend prints 32P)
notes: Made with the TNT-coupled Translation System from pcDNA3-Flag-P4HA1; also called pcDNA3-Flag-P4HA1; [32P]-labeled Flag-P4HA1 fused protein; not shown: Flag tag
On to B2, for which the binding result in experiment [2] was “no binding”.
